Laboratory results taken from the supplement of paper PMC10065799, “High-throughput profiling of sequence recognition by tyrosine kinases and SH2 domains using bacterial peptide display” (eLife, 2023).

How the values were obtained:
FGFR3 = FGFR3 (UniProt P22607); assay: phosphorylation enrichment, bacterial display (enrichment ratio); higher = better substrate or ligand; peptides without Tyr show the background
Hck = Hck (UniProt P08631); assay: as above
Fer (mouse) = assay: as above
Fyn = Fyn (UniProt P06241); assay: as above
c-Src = assay: as above
FGFR1 = FGFR1 (UniProt P11362); assay: as above
Jak2 = Jak2 (UniProt O60674); assay: as above
Fes = Fes (UniProt P07332); assay: as above
MERTK = MERTK (UniProt Q12866); assay: as above
c-Abl (mouse) = assay: as above
AncSZ = assay: as above
EPHB2 = EPHB2 (UniProt P29323); assay: as above
EPHB1 = EPHB1 (UniProt P54762); assay: as above
c-Src SH2 = assay: SH2 binding enrichment of the phosphorylated peptide, bacterial display (enrichment ratio); higher = better substrate or ligand; peptides without Tyr show the background
SHP2-C SH2 = assay: as above
Grb2 SH2 = Grb2 SH2 (UniProt P62993); assay: as above
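Throughout, for SH2 binding enrichment of the phosphorylated peptide, bacterial display: peptide library displayed on the E. coli surface as eCPX fusions, selected cells deep-sequenced, score is each peptide's frequency after selection divided by its frequency in the input.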
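Throughout, for phosphorylation enrichment, bacterial display: 11-residue human phosphosite peptides and single-mutation variants displayed on the E. coli surface, counted by deep sequencing, each peptide's frequency after selection divided by its frequency in the unselected input library; frequency after pTyr selection over input frequency; kinase dosed for 20-30% of maximal phosphorylation in three min.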

MERTK, sequence (Q12866 whole entry, looked up): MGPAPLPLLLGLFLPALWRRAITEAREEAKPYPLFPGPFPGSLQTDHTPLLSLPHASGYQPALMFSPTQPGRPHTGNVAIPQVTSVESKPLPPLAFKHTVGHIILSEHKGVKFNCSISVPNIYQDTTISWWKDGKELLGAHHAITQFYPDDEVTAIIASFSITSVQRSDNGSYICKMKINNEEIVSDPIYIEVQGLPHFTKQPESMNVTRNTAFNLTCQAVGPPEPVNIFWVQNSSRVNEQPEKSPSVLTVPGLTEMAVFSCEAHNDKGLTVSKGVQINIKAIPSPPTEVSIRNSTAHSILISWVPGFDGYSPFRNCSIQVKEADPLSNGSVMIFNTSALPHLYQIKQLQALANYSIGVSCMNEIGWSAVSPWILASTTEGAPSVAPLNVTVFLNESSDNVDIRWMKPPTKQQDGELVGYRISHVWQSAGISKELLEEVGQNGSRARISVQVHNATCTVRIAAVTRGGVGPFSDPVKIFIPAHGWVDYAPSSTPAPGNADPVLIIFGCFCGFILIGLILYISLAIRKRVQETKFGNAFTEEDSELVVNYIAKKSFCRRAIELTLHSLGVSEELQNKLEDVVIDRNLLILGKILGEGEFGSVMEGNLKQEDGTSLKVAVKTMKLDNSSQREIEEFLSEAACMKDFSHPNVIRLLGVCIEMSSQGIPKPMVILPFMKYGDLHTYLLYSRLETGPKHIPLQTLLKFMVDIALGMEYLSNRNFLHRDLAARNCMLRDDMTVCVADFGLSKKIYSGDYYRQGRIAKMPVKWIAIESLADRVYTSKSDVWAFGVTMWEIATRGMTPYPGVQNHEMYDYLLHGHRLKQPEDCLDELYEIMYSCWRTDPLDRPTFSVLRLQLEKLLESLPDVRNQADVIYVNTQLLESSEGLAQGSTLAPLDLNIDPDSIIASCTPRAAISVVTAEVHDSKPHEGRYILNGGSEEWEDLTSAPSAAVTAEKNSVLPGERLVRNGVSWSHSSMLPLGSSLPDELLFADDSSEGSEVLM
EPHB2, sequence (P29323 whole entry, looked up): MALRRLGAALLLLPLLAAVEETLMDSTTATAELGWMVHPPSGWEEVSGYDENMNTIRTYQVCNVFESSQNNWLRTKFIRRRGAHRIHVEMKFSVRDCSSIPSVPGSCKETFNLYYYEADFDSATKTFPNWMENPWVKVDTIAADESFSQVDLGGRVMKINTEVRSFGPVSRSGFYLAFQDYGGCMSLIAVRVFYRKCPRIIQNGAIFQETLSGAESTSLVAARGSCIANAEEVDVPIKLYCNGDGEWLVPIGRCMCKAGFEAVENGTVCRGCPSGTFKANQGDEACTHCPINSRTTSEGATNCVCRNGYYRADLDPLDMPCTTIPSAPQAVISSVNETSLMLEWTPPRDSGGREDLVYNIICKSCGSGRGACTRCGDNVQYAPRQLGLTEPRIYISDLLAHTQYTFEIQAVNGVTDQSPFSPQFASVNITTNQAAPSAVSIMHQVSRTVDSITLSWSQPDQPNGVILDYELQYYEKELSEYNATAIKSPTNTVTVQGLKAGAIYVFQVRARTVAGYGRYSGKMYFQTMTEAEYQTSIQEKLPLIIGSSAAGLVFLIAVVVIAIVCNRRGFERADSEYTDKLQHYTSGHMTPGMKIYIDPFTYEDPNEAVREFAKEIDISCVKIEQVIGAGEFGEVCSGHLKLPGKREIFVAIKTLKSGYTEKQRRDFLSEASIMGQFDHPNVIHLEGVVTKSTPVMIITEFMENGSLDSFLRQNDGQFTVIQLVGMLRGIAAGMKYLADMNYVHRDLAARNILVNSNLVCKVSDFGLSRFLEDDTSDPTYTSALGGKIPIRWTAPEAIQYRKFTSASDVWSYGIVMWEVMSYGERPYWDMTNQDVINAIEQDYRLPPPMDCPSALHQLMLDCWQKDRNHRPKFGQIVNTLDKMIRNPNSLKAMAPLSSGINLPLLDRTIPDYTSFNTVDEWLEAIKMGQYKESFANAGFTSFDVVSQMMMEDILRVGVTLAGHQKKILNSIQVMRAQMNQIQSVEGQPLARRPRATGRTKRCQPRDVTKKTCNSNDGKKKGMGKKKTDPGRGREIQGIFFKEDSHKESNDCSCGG
Fyn, sequence (P06241 whole entry, looked up): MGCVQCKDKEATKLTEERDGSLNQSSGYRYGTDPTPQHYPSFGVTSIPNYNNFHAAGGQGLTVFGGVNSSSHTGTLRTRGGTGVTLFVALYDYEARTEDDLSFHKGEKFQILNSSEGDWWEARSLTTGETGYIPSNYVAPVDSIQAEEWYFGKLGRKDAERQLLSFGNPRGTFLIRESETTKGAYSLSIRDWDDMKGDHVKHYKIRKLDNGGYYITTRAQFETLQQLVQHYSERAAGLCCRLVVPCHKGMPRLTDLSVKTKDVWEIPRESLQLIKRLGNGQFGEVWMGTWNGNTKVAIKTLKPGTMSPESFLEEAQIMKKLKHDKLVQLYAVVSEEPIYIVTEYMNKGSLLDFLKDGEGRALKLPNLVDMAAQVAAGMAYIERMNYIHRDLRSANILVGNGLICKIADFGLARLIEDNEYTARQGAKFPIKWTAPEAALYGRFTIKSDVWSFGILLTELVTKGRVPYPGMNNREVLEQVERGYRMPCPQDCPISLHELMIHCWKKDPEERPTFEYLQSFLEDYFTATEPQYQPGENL
FGFR1, sequence (P11362 whole entry, looked up): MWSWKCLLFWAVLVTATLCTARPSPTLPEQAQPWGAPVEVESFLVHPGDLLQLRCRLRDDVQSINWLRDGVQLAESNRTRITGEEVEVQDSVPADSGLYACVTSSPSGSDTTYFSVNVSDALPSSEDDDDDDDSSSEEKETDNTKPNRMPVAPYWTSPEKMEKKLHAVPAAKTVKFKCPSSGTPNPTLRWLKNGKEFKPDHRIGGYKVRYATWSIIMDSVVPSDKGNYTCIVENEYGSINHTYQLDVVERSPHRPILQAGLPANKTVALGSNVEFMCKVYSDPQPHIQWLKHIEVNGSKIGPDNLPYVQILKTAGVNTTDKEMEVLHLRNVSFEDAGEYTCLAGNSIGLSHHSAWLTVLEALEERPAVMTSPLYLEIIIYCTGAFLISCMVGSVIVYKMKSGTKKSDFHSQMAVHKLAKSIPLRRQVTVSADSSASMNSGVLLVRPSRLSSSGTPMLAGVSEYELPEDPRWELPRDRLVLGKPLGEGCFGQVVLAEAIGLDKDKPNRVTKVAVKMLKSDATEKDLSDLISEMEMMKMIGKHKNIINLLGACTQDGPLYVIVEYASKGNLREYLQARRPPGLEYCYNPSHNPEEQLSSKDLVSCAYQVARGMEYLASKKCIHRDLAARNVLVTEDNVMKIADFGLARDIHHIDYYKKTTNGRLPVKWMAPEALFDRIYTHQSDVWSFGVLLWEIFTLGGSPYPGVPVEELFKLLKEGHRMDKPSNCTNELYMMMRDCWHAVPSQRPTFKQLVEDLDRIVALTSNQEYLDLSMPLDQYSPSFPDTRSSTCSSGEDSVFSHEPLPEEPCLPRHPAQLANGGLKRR
Jak2, sequence (O60674 whole entry, looked up): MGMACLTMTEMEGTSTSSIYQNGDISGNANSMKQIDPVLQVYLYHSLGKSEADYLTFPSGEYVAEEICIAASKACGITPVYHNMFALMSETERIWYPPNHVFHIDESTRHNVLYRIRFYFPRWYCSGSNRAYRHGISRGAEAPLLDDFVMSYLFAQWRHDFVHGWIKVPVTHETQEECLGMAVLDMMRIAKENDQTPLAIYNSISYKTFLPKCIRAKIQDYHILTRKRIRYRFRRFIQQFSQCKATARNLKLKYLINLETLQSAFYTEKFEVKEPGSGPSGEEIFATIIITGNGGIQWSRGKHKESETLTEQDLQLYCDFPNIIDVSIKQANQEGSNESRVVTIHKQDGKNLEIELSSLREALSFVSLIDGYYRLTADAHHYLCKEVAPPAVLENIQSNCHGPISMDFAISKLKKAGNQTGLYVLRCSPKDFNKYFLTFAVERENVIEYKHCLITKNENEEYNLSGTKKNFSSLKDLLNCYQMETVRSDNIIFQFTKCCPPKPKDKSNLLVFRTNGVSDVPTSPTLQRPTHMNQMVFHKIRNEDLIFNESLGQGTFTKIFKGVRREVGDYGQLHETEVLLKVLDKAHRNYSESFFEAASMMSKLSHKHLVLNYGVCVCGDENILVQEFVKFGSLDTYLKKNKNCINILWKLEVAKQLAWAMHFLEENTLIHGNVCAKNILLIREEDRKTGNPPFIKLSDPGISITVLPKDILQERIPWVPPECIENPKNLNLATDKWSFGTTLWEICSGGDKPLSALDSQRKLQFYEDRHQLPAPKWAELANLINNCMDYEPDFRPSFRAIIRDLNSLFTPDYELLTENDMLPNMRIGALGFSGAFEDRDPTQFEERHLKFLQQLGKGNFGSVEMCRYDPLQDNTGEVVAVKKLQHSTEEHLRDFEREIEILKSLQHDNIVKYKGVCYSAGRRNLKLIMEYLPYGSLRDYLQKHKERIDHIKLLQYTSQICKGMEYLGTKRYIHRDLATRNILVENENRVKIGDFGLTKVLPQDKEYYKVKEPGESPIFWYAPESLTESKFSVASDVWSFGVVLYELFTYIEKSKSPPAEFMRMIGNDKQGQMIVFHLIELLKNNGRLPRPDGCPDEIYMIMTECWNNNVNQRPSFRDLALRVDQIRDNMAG
Hck, sequence (P08631 whole entry, looked up): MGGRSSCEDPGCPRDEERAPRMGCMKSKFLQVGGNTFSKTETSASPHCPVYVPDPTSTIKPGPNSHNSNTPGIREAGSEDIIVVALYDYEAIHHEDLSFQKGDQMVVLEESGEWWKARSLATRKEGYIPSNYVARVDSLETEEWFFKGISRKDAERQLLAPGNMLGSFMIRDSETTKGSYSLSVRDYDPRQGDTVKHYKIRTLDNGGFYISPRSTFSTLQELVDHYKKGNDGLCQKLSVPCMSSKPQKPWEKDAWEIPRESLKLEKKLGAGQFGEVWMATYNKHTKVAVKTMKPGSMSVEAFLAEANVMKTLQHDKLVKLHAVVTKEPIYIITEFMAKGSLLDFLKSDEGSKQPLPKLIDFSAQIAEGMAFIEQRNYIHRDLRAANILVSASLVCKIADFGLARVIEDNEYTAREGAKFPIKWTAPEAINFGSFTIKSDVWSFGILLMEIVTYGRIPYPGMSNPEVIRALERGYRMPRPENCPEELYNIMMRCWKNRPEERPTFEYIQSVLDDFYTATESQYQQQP

Sequence	SH2 binding enrichment (c-Src SH2)	SH2 binding enrichment (SHP2-C SH2)	SH2 binding enrichment (Grb2 SH2)	phosphorylation enrichment (FGFR3)	phosphorylation enrichment (Hck)	phosphorylation enrichment (Fer (mouse))	phosphorylation enrichment (Fyn)	phosphorylation enrichment (c-Src)	phosphorylation enrichment (FGFR1)	phosphorylation enrichment (Jak2)	phosphorylation enrichment (Fes)	phosphorylation enrichment (MERTK)	phosphorylation enrichment (c-Abl (mouse))	phosphorylation enrichment (AncSZ)	phosphorylation enrichment (EPHB2)	phosphorylation enrichment (EPHB1)
YASALYRQRRS [FGF11_Y162]	0.419	0.34	0.649	0.58	0.548	0.431	0.687	0.659	0.507	0.513	0.632	0.535	0.703	0.613	0.62	0.433
KIVATYRLCSE [DNAH3_Y1586]	0.512	0.778	0.685	0.664	0.725	0.487	0.463	0.535	0.571	1.02	1.28	0.565	0.714	1.06	0.626	0.631
VRQQDYKKVEE [HADHA_Y283_V282D]	0.414	0.532	1.02	0.442	0.482	0.376	0.417	0.43	0.514	0.564	0.604	0.419	0.423	0.783	0.561	0.517
GKGGSYSKAES [HLA-E_Y341_W346S]	0.389	0.499	0.73	0.394	0.359	0.307	0.375	0.423	0.391	0.386	0.514	0.447	0.462	0.485	0.295	0.3
ENPAKYDDIKK [GAPDH_Y255_K251N]	1.39	0.888	0.702	0.69	0.412	0.453	0.506	0.485	0.519	0.829	1.04	0.437	0.579	0.915	0.582	0.608
KKMKCYHVGKV [HARS2_Y151_R150C]	1.12	0.954	1.35	0.552	0.383	0.356	0.317	0.408	0.395	0.588	0.723	0.423	0.627	0.579	0.431	0.444
MFNPMYALFRT [HUWE1_Y4078]	0.811	1.1	1.09	0.676	4.67	4.26	4.28	5.38	0.545	0.827	0.905	6.9	1.19	0.946	0.693	1.42
SSEFHYVGGFF [CTSC_Y347_YF]	0.376	0.607	0.688	0.813	0.544	0.558	0.516	0.707	0.572	0.904	1.16	0.428	0.897	0.949	0.532	0.646
WKEREYEVVRD [CPS1_Y634_I632R]	6.04	0.67	0.954	0.684	0.586	0.573	0.599	0.506	0.554	0.949	1.12	0.478	0.594	1.26	2.29	1.36
EKLQKYFRQNP [EHHADH_Y682_YF]	0.355	0.761	0.871	0.472	0.351	0.365	0.431	0.408	0.358	0.549	0.742	0.354	0.942	0.802	0.35	0.375
YRTGHYLCNAC [GATA1_Y223_D218Y]	0.968	1.12	1.01	0.41	0.376	0.271	0.383	0.31	0.412	0.424	0.506	0.355	0.524	0.477	0.415	0.341
NYYDTCIKTCL [IQGAP2_Y1445_Y1445C]	3.21	0.706	0.856	5.45	1.51	1.05	1.52	1.16	7.57	1.17	1.07	5.87	0.894	1.3	2.32	7.47
RGFDTYFGYLL [ARSB_Y165]	0.417	1.42	1	3.3	7.09	3.59	8.58	6.46	3.58	5.83	1.63	4.01	1.56	2.15	8.25	5.14
IRKDLYANNVL [ACTA2_Y296]	0.569	0.614	1.23	0.564	0.45	0.422	0.413	0.429	0.421	0.54	0.59	0.476	0.581	0.527	0.46	0.38
SRLSAYPALEG [CD5_Y465_H461R]	0.437	0.69	0.899	0.469	0.436	0.391	0.425	0.533	0.486	0.674	0.803	0.496	0.471	0.723	0.495	0.348
FQLPFYNMVPS [BMPR1A_Y458_YF]	1.97	0.652	0.952	0.936	1.07	1.45	1.05	1.06	1.21	0.666	0.811	2.69	0.582	0.788	0.773	0.65
DVELLYPVKEK [EPHX1_Y283]	0.42	0.487	0.73	0.558	0.422	0.432	0.404	0.452	0.394	0.971	1.05	0.36	0.648	0.968	0.513	0.445
KNNSIYVLANI [VNN1_Y134_V136L]	0.796	1.67	1.14	1.08	1.15	2.7	1.14	1.58	0.947	1.16	1.24	1.95	1.05	1.17	0.668	0.793
TEYSQYMRRKN [MAX_Y73_I71S]	0.397	0.411	0.653	0.508	0.562	0.443	0.536	0.523	0.548	0.507	0.622	0.558	0.418	0.674	0.563	0.476

Now from value to sequence, other results behind:

SH2 binding enrichment (c-Src SH2)	SH2 binding enrichment (SHP2-C SH2)	SH2 binding enrichment (Grb2 SH2)	Sequence	phosphorylation enrichment (FGFR3)	phosphorylation enrichment (Hck)	phosphorylation enrichment (Fer (mouse))	phosphorylation enrichment (Fyn)	phosphorylation enrichment (c-Src)	phosphorylation enrichment (FGFR1)	phosphorylation enrichment (Jak2)	phosphorylation enrichment (Fes)	phosphorylation enrichment (MERTK)	phosphorylation enrichment (c-Abl (mouse))	phosphorylation enrichment (AncSZ)	phosphorylation enrichment (EPHB2)	phosphorylation enrichment (EPHB1)
0.643	0.731	1.2	TTANRYLKVSD [MYOM2_Y871]	0.41	0.607	0.484	0.404	0.486	0.453	0.492	0.641	0.409	0.526	0.546	0.432	0.38
0.535	0.52	0.878	GLIPAYHWVIM [NMNAT1_Y64_R66W]	6.04	0.543	5.52	0.503	0.526	8.56	1.68	1.25	1.8	0.92	1.49	0.731	0.755
0.536	0.667	0.868	EEGNPYFSGAR [MCCC2_Y520_S523G_YF]	0.686	0.864	0.347	0.637	1.37	0.521	0.802	0.945	0.444	0.687	0.938	0.462	0.516
2.03	1.08	0.758	LNAGAYSKVVE [PPT1_Y172_Q177E]	0.378	0.411	0.551	0.306	0.523	0.436	0.541	0.664	0.448	0.46	0.447	0.416	0.431
2.12	0.865	0.81	PLQNTYNYNVL [SLC4A1_Y553_K551N]	0.545	0.6	0.233	0.65	0.745	0.37	0.67	0.894	0.737	1.51	0.634	1.6	0.939
0.498	0.71	0.946	KDHPDYKFQPR [SOX10_Y171_YF]	0.543	0.48	0.44	0.487	0.453	0.519	0.566	0.745	0.468	0.573	0.694	0.501	0.466
0.586	0.876	0.902	VKPENYWRLDI [VHL_Y175_R176W]	0.895	0.443	0.441	0.381	0.377	0.783	1.39	1.15	0.588	0.839	1.13	0.61	0.814
0.757	0.683	0.894	MSRDVYSTDCF [NTRK2_Y702_Y706C_YF]	0.803	1.14	0.516	2.71	2.4	0.64	0.855	1.2	3.02	0.874	1	0.675	0.754
0.546	0.588	0.832	IFRAAYFGVFD [SLC25A4_Y191_YF]	0.717	0.457	0.523	0.497	0.438	0.499	0.891	1.25	0.447	0.761	0.985	0.594	0.751
0.383	1.06	0.948	SHMVDYQPFRK [TEX37_Y25_YF]	0.464	0.732	0.294	0.5	0.672	0.387	1.03	0.705	0.473	0.967	0.564	0.445	0.549
